Measured values reported in the supplement of paper PMC11246515.
± gives the standard deviation of the averaged measurements.

Test: total protein half-life in vivo (active degradation + dilution); higher = more stable protein
[1] = E. coli NCM3722 delta-clpP delta-lon delta-hslV, growth: N-lim chemostat, doubling time 6 h
[2] = E. coli NCM3722 delta-clpP, growth: N-lim chemostat, doubling time 6 h
[3] = E. coli NCM3722 delta-hslV, growth: N-lim chemostat, doubling time 6 h
[4] = E. coli NCM3722 delta-lon, growth: N-lim chemostat, doubling time 6 h
[5] = E. coli NCM3722 delta-smpB, growth: N-lim chemostat, doubling time 6 h
[6] = wild type E. coli NCM3722, growth: C-lim chemostat, doubling time 3 h
[7] = wild type E. coli NCM3722, growth: C-lim chemostat, doubling time 6 h
[8] = wild type E. coli NCM3722, growth: C-lim chemostat, doubling time 12 h
[9] = wild type E. coli NCM3722, growth: N-lim chemostat, doubling time 6 h
[10] = wild type E. coli NCM3722, growth: N-lim chemostat, doubling time 12 h
[11] = wild type E. coli NCM3722, growth: P-lim chemostat, doubling time 6 h
[12] = wild type E. coli NCM3722, growth: P-lim chemostat, doubling time 12 h

## MKHSVSVTCCALLVSSISLSYAAEVPSGTVLAEKQELVRHIKDEPASLDPAKAVGLPEIQVIRDLFEGLVNQNEKGEIVPGVATQWKSNDNRIWTFTLRDNAKWADGTPVTAQDFVYSWQRLVDPKTLSPFAWFAALAGINNAQAIIDGKATPDQLGVTAVDAHTLKIQLDKPLPWFVNLTANFAFFPVQKANVESGKEWTKPGNLIGNGAYVLKERVVNEKLVVVPNTHYWDNAKTVLQKVTFLPINQESAATKRYLAGDIDITESFPKNMYQKLLKDIPGQVYTPPQLGTYYYAFNTQKGPTADQRVRLALSMTIDRRLMTEKVLGTGEKPAWHFTPDVTAGFTPEPSPFEQMSQEELNAQAKTLLSAAGYGPQKPLKLTLLYNTSENHQKIAIAVASMWKKNLGVDVKLQNQEWKTYIDSRNTGNFDVIRASWVGDYNEPSTFLTLLTSTHSGNISRFNNPAYDKVLAQASTENTVKARNADYNAAEKILMEQAPIAPIYQYTNGRLIKPWLKGYPINNPEDVAYSRTMYIVKH
[1]
  total protein half-life in vivo: 5.12 ± 0.18 h
[2]
  total protein half-life in vivo: 5.6 ± 0.17 h
[3]
  total protein half-life in vivo: 6.96 ± 0.47 h
[4]
  total protein half-life in vivo: 6.18 ± 0.087 h
[5]
  total protein half-life in vivo: 5.63 ± 0.21 h
[6]
  total protein half-life in vivo: 3.26 ± 0.29 h
[7]
  total protein half-life in vivo: 6.21 ± 0.43 h
[8]
  total protein half-life in vivo: 10.1 ± 0.25 h
[9]
  total protein half-life in vivo: 6.41 ± 0.44 h
[10]
  total protein half-life in vivo: 12.1 ± 0.92 h
[11]
  total protein half-life in vivo: 5.86 ± 0.16 h
[12]
  total protein half-life in vivo: 12.4 ± 1.1 h

## MKLKTTLFGNVYQFKDVKEVLAKANELRSGDVLAGVAAASSQERVAAKQVLSEMTVADIRNNPVIAYEDDCVTRLIQDDVNETAYNQIKNWSISELREYVLSDETSVDDIAFTRKGLTSEVVAAVAKICSNADLIYGAKKMPVIKKANTTIGIPGTFSARLQPNDTRDDVQSIAAQIYEGLSFGVGDAVIGVNPVTDDVENLSRVLDTIYGVIDKFNIPTQGCVLAHVTTQIEAIRRGAPGGLIFQSICGSEKGLKEFGVELAMLDEARAVGAEFNRIAGENCLYFETGQGSALSAGANFGADQVTMEARNYGLARHYDPFIVNTVVGFIGPEYLYNDRQIIRAGLEDHFMGKLSGISMGCDCCYTNHADADQNLNENLMILLATAGCNYIMGMPLGDDIMLNYQTTAFHDTATVRQLLNLRPSPEFERWLESMGIMANGRLTKRAGDPSLFF [P0AEJ6]
[1]
  total protein half-life in vivo: 5.95 ± 1.3 h
[2]
  total protein half-life in vivo: 5.45 ± 0.56 h
[3]
  total protein half-life in vivo: 4.07 ± 0.41 h
[4]
  total protein half-life in vivo: 4.68 ± 0.12 h
[5]
  total protein half-life in vivo: 3.91 ± 0.24 h
[6]
  total protein half-life in vivo: 3.36 ± 0.3 h
[7]
  total protein half-life in vivo: 6.26 ± 0.2 h
[8]
  total protein half-life in vivo: 11.1 ± 0.83 h
[9]
  total protein half-life in vivo: 3.82 ± 0.15 h
[10]
  total protein half-life in vivo: 6.18 ± 0.099 h
[11]
  total protein half-life in vivo: 6.37 ± 0.16 h
[12]
  total protein half-life in vivo: 12 ± 0.84 h

## MHSQIWVVSTLLISIVLIVLTIVKFKFHPFLALLLASFFVGTMMGMGPLDMVNAIESGIGGTLGFLAAVIGLGTILGKMMEVSGAAERIGLTLQRCRWLSVDVIMVLVGLICGITLFVEVGVVLLIPLAFSIAKKTNTSLLKLAIPLCTALMAVHCVVPPHPAALYVANKLGADIGSVIVYGLLVGLMASLIGGPLFLKFLGQRLPFKPVPTEFADLKVRDEKTLPSLGATLFTILLPIALMLVKTIAELNMARESGLYILVEFIGNPITAMFIAVFVAYYVLGIRQHMSMGTMLTHTENGFGSIANILLIIGAGGAFNAILKSSSLADTLAVILSNMHMHPILLAWLVALILHAAVGSATVAMMGATAIVAPMLPLYPDISPEIIAIAIGSGAIGCTIVTDSLFWLVKQYCGATLNETFKYYTTATFIASVVALAGTFLLSFII
[5]
  total protein half-life in vivo: 4.91 h
[7]
  total protein half-life in vivo: 5.8 h
[8]
  total protein half-life in vivo: 11.9 h
[10]
  total protein half-life in vivo: 9.38 h

## MSRTIFCTFLQREAEGQDFQLYPGELGKRIYNEISKEAWAQWQHKQTMLINEKKLNMMNAEHRKLLEQEMVNFLFEGKEVHIEGYTPEDKK [P0A8P3]
[1]
  total protein half-life in vivo: 6.2 ± 0.24 h
[2]
  total protein half-life in vivo: 4.957 ± 0.0071 h
[3]
  total protein half-life in vivo: 4.94 ± 1.4 h
[4]
  total protein half-life in vivo: 5.01 ± 0.2 h
[5]
  total protein half-life in vivo: 3.99 ± 0.37 h
[6]
  total protein half-life in vivo: 3.07 ± 0.31 h
[7]
  total protein half-life in vivo: 5.14 ± 0.14 h
[8]
  total protein half-life in vivo: 8.58 ± 1.5 h
[9]
  total protein half-life in vivo: 3.63 ± 0.074 h
[10]
  total protein half-life in vivo: 6.39 ± 0.51 h
[11]
  total protein half-life in vivo: 5.7 h
[12]
  total protein half-life in vivo: 9.27 ± 1.4 h

## MSDEGLAPGKRLSEIRQQQGLSQRRAAELSGLTHSAISTIEQDKVSPAISTLQKLLKVYGLSLSEFFSEPEKPDEPQVVINQDDLIEMGSQGVSMKLVHNGNPNRTLAMIFETYQPGTTTGERIKHQGEEIGTVLEGEIVLTINGQDYHLVAGQSYAINTGIPHSFSNTSAGICRIISAHTPTTF [P0A9U6]
[1]
  total protein half-life in vivo: 5.35 ± 0.67 h
[2]
  total protein half-life in vivo: 5.41 ± 3.1 h
[3]
  total protein half-life in vivo: 3.29 h
[4]
  total protein half-life in vivo: 4.06 ± 0.25 h
[5]
  total protein half-life in vivo: 2.66 ± 0.063 h
[7]
  total protein half-life in vivo: 4.03 ± 0.12 h
[8]
  total protein half-life in vivo: 5.53 ± 0.11 h
[9]
  total protein half-life in vivo: 2.7 ± 0.51 h
[10]
  total protein half-life in vivo: 3.47 ± 0.064 h
[11]
  total protein half-life in vivo: 4.43 ± 0.92 h
[12]
  total protein half-life in vivo: 6.69 ± 0.82 h

## MIKVLFFAQVRELVGTDATEVAADFPTVEALRQHMAAQSDRWALALEDGKLLAAVNQTLVSFDHPLTDGDEVAFFPPVTGG
[2]
  total protein half-life in vivo: 4.52 ± 0.36 h
[3]
  total protein half-life in vivo: 4.61 ± 0.15 h
[4]
  total protein half-life in vivo: 5.83 ± 0.47 h
[5]
  total protein half-life in vivo: 4.6 ± 0.21 h
[6]
  total protein half-life in vivo: 2.96 ± 0.2 h
[7]
  total protein half-life in vivo: 4.76 ± 0.41 h
[8]
  total protein half-life in vivo: 9.64 ± 0.42 h
[9]
  total protein half-life in vivo: 4.25 ± 0.17 h
[10]
  total protein half-life in vivo: 7.72 ± 0.16 h
[11]
  total protein half-life in vivo: 5.12 ± 0.3 h
[12]
  total protein half-life in vivo: 11.7 ± 0.55 h

## METLIAISRWLAKQHVVTWCVQQEGELWCANAFYLFDAQKVAFYILTEEKTRHAQMSGPQAAVAGTVNGQPKTVALIRGVQFKGEIRRLEGEESDLARKAYNRRFPVARMLSAPVWEIRLDEIKFTDNTLGFGKKMIWLRDSGTEQA
[1]
  total protein half-life in vivo: 5.46 ± 0.32 h
[2]
  total protein half-life in vivo: 5.48 ± 0.64 h
[5]
  total protein half-life in vivo: 4.81 ± 0.52 h
[7]
  total protein half-life in vivo: 6.11 ± 0.22 h
[8]
  total protein half-life in vivo: 13.5 ± 1.2 h
[9]
  total protein half-life in vivo: 5.11 ± 0.18 h
[10]
  total protein half-life in vivo: 9.39 ± 0.75 h
[11]
  total protein half-life in vivo: 5.48 ± 1.1 h
[12]
  total protein half-life in vivo: 12.5 ± 0.68 h
